Results: US5792629A, “Isolated DNA encoding novel protease inhibitory polypeptide” (Mochida Pharmaceutical Co., Ltd., priority 1990, dated 1998)
Values belong to the molecule of their own block, whether it stands above or below them.

Legend:
FXa = FXa (Homo sapiens, UniProt P00742); assay: Human FXa-inhibiting activity, substrate S-2222; format: biochemical; design: purchased American Diagnostica Inc; conditions: for human FXa-inhibiting activity: purified sample, various concentrations, remaining activity vs buffer control (FIG. 18A-C)
Protocol: The purified sample obtained in Example 1-(5) was dissolved in 100 μl of distilled water. Concentration of this solution was determined based on its bovine trypsin-inhibiting activity using the aforementioned UTI as a standard. The solution was then diluted to various concentration levels with 0.1% BSA/150 mM NaCl/5 mM CaCl2 /50 mM Tris-HCl buffer (pH 8.3) for use in the activity measurement. The UTI was also diluted in the same manner. Using a synthetic compound S-2222 (Daiichi Pure Chemicals Co., Ltd.) as a substrate, human FXa-inhibiting activities of the diluted test samples and the positive control were measured in accordance with the method of Ohno et al. (Ohno,H. et al., Thromb. Res., vol.19, pp.579-588, 1980) as follows.
Human FXa (American Diagnostica Inc.) was dissolved in distilled water to a concentration of 10 PEU/ml and the solution was further diluted with 0.1% BSA/150 mM NaCl/5 mM CaCl2 /50 mM Tris-HCl buffer (pH 8.3) to prepare 0.1 PEU/ml of FXa solution. 4 mM solution of S-2222 was prepared by dissolving it in distilled water and the solution was further diluted with 0.1% BSA/150 mM NaCl/5 MM CaCl2 /50 mM Tris-HCl buffer (pH 8.3) to obtain 2 mM solution of S-2222.
Next, 25 μl of the test sample or positive control was mixed with 100 μl of 0.1% BSA/150 mM NaCl/5 mM CaCl2 /50 mM Tris-HCl buffer (pH 8.3) and 25 μl of the FXa solution. After incubation at 37° C. for 10 minutes, 100 μl of the S-2222 solution was added to the mixture to start the reaction. The reaction was carried out at 37° C. for 30 minutes and then stopped by adding 50 μl of 50% acetic acid solution to the reaction mixture. Thereafter, absorbance at 405 nm was measured using a spectrophotometer.
In this instance, in order to eliminate absorbance of various solutions in the reaction mixture, a blank solution was prepared by mixing 25 μl of the FXa solution with 50 μl of 50% acetic acid and then with 25 μl of each test sample or the positive control, 100 μl of 0.1% BSA/150 mM NaCl/5 mM CaCl2 /50 mM Tris-HCl buffer (pH 8.3) and with 100 μl of the S-2222 solution.
In this figure, human FXa remaining activity was expressed by percentage based on the absorbance of a control reaction mixture in which 25 μl of 0.1% BSA/150 mM NaCl/5 mM CaCl2 /50 mM Tris-HCl buffer (pH 8.3) was used instead of the test sample or the positive control.

[1] = target: T1, Human neutrophil elastase (Homo sapiens, UniProt P08246); assay: Human elastase-inhibiting activity, substrate STANA; format: biochemical; conditions: purified sample, various concentrations; remaining activity vs buffer control (FIG. 15A-C)
T1 construct: purchased CALBIOCHEM Type V
T1 sequence (P08246 30-267): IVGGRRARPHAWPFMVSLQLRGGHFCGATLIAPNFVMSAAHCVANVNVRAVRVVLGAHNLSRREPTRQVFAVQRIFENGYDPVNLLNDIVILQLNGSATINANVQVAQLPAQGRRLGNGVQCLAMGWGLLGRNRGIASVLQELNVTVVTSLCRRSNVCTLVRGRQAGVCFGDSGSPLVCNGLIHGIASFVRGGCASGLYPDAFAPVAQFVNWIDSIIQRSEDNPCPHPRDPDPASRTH
Protocol: The purified sample obtained in Example 1-(5) was dissolved in 100 μl of distilled water. Concentration of this solution was determined based on its bovine trypsin-inhibiting activity using the UTI as a standard. The solution was then diluted to various concentration levels with 0.1% BSA/27 mM CaCl2 /133 mM Tris-HCl buffer (pH 7.5) for use in the activity measurement. The aforementioned UTI was also diluted in the same manner. Human elastase-inhibiting activities in the test samples and the positive control were measured in accordance with the method of Ogawa et al. (Ogawa, M. et al., Res. Commun. Chem. Pathol. Pharmacol., vol.55, pp.271-274, 1987) using a synthetic compound STANA (Peptide Institute Inc.) as a substrate.
Human neutrophil elastase (Type V, CALBIOCHEM) was dissolved in 27 mM CaCl2 /[…] Tris-HCl buffer (pH 7.5) to a concentration of 100 μg/ml and the solution was further diluted with 0.1% BSA/27 mM CaCl2 /133 mM Tris-HCl buffer (pH 7.5) to prepare 4 μg/ml of elastase solution. 100 mM solution of STANA was prepared by dissolving it in N-methyl-2-pyrrolidone and the solution was further diluted with 0.1% BSA/27 mM CaCl2 /133 mM Tris-HCl buffer (pH 7.5) to prepare 20 mM of STANA solution.
Next, 50 μl of the test sample or positive control was mixed with 50 μl of the elastase solution and 50 μl of 0.1% BSA/27 mM CaCl2 /133 mM Tris-HCl buffer (pH 7.5). After incubation at 37° C. for 10 minutes, 50 μl of the STANA solution was added to the mixture to start the reaction. The reaction was carried out at 37° C. for 20 minutes and then stopped by adding 50 μl of 50% acetic acid solution to the reaction mixture. Thereafter, absorbance at 405 nm was measured using a spectrophotometer.
In this instance, in order to eliminate absorbance of various solutions in the reaction mixture, a blank solution was prepared by mixing 50 μl of the elastase solution with 50 μl of 50% acetic acid and then with 50 μl of each test sample or the positive control, 50 μl of 0.1% BSA/27 mM CaCl2 /133 mM Tris-HCl buffer (pH 7.5) and with 50 μl of the STANA solution.
In this figure, human elastase remaining activity was expressed by percentage based on the absorbance of a control reaction mixture in which 50 μl of 0.1% BSA/27 mM CaCl2 /133 mM Tris-HCl buffer (pH 7.5) was used instead of the test sample or the positive control.

Chain of FXa (P00742 235-488 limits assumed): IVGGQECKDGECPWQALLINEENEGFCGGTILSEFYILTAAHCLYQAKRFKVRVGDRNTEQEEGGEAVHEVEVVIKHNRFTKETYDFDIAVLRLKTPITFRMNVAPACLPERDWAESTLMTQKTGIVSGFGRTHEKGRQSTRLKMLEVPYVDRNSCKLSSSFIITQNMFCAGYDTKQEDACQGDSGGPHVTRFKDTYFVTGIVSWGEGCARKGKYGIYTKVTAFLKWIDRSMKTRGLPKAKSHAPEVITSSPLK
Chain of FXa (P00742 41-179 partner limits assumed): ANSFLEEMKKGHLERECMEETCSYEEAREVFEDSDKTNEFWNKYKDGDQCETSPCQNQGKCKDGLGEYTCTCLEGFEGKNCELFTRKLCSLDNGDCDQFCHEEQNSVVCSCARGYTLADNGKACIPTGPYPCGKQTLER

Molecule: CC51: polypeptide defined by the amino acid sequence of formula 1, purified from culture supernatant of E. coli JE5505 (pM560) (CNLPIVRGPCRAFIQLWAFDAVKGKCVLFPYGGCQGNGNKFYSEKECREYC)
human FXa-inhibiting activity (FXa): activity was found | human elastase-inhibiting activity [1]: activity was found

B1: TL66: polypeptide defined by formula 8; known enzyme-digested fragment of urinary trypsin inhibitor, made in E. coli JE5505 (pM551) (protein)
chain: TVAACNLPIVRGPCRAFIQLWAFDAVKGKCVLFPYGGCQGNGNKFYSEKECREYCGVPGDGDEELL
human FXa-inhibiting activity (FXa): activity was found | human elastase-inhibiting activity [1]: activity was found

Next, values leading:

FXa-inhibiting activity (FXa; experiments of the inventors, even at an extremely high concentration): no FXa-inhibiting activity was found | human FXa-inhibiting activity (FXa): activity was not found | human elastase-inhibiting activity [1]: activity was found
B2: UTI: urinary trypsin inhibitor purified from human urine (Mochida Pharmaceutical), used as positive control (protein)
chain: AVLPQEEEGSGGGQLVTEVTKKEDSCQLGYSAGPCMGMTSRYFYNGTSMACETFQYGGCMGNGNNFVTEKECLQTCRTVAACNLPIVRGPCRAFIQLWAFDAVKGKCVLFPYGGCQGNGNKFYSEKECREYCGVPGDGDEELLRFSN
modifications: glycoprotein (sugar moieties, as the filing says in general of UTI)

human FXa-inhibiting activity (FXa): activity was found | human elastase-inhibiting activity [1]: activity was found
B3: TN70: polypeptide defined by the amino acid sequence of formula 3, purified from culture supernatant of E. coli JE5505 (pM552) (protein)
chain: TVAACNLPIVRGPCRAFIQLWAFDAVKGKCVLFPYGGCQGNGNKFYSEKECREYCGVPGDGDEELLRFSN
